Measured values: publication PMC4057808, “Molecular characterization of Clonorchis sinensis secretory myoglobin: Delineating its role in anti-oxidative survival” (Parasites & Vectors, 2014)

Test system: COc1ccccc1O
Experiment: purified protein
Details: H2O2 (0.2 mM in methods, ~20 μM in table note), 50 mM sodium phosphate pH 7.0, 20 °C, guaiacol varied 0.08-2.5 mM as printed

For “rCsMb (CsMb, Clonorchis sinensis myoglobin) (Clonorchis sinensis)”, the Km was 81 mM.
